Results on 2 molecules are retold here after patent US20100310509A1 (published 2010).

In assay [1] the target is T1, soluble human OSMR (Oncostatin M receptor) (human, UniProt Q99650 28-740).
T1 construct: extracellular domain; Bought; also called soluble OSMR
T1 sequence (looked up): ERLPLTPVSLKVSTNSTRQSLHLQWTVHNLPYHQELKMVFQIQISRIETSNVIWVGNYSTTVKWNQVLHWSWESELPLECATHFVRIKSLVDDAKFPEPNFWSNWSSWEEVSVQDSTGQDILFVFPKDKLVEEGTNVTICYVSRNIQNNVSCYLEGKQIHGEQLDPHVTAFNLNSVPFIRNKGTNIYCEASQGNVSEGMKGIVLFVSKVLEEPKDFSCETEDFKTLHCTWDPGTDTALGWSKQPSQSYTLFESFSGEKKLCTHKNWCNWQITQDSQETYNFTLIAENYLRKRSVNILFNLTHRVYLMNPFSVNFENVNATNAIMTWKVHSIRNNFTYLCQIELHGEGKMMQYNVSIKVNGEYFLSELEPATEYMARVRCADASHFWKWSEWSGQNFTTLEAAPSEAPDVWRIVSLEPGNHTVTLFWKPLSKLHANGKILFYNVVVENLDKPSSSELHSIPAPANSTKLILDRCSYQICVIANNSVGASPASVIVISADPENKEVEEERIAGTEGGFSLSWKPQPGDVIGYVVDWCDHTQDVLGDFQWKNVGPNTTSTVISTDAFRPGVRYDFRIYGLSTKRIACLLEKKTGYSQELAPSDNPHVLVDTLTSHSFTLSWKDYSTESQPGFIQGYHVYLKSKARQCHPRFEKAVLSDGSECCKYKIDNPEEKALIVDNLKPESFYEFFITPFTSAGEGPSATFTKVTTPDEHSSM
Description: SPR (SensiQ), OSM-M2 immobilised, soluble OSMR injected (150nM, 100nM, 50nM, 25nM, 10nM, 5nM). As for the experimental part:
Surface Plasmon Resonance (SPR): Kinetic parameters of the interactions between receptor domains and the cytokines LIF, OSM-WT, OSM-M1 or OSM-M2 were analyzed by SPR using the SENSIQ® system (ICX Technologies, Oklahoma City, Okla.) as described by the manufacturer protocol. Briefly, a carboxyl sensor with two channels was installed in SENSIQ® and allowed to thermally equilibrate for about 15 minutes. The channels were initially cleaned with a 3 minute injection of 0.1 M HCl. An activation solution of 2 mM 1-Ethyl-3-[3-dimethylaminopropyl]carbodiimide hydrochloride (EDC) and 0.5 mM N-hydroxysulfo succinimide (NHS) was prepared in deionized water immediately before injection. Activation solution was injected over both channels for approximately 3 minutes followed by a 10 minute injection of 50 μg/mL cytokine (LIF, OSM-WT, OSM-M1 or OSM-M2) in 10 mM acetate buffer, pH 5.0, over channel 1. […] Unreacted NHS esters were capped with a 3 minute injection of 1 M ethanolamine, pH 8.0, over both channels. […] A concentration series of soluble LIFR (# 249-LR-050/CF, R&D Systems, Minneapolis, Minn.), soluble OSMR (# 4389-OR-50, R&D Systems, Minneapolis, Minn.) or soluble gp130 (# 228-GP-050/CF, R&D Systems, Minneapolis, Minn.) in running buffer (10 mM HEPES pH 7.4, 150 mM NaCl, 3.4 mM EDTA, 0.005% Tween-20) were injected over both channels at a flow rate of 25 μl/min. […]

Assay [2] concerns the target T2, soluble gp130 (R&D Systems # 228-GP-050/CF) (UniProt P40189 23-619, limits assumed).
T2 construct: extracellular domain; Bought
T2 sequence (looked up): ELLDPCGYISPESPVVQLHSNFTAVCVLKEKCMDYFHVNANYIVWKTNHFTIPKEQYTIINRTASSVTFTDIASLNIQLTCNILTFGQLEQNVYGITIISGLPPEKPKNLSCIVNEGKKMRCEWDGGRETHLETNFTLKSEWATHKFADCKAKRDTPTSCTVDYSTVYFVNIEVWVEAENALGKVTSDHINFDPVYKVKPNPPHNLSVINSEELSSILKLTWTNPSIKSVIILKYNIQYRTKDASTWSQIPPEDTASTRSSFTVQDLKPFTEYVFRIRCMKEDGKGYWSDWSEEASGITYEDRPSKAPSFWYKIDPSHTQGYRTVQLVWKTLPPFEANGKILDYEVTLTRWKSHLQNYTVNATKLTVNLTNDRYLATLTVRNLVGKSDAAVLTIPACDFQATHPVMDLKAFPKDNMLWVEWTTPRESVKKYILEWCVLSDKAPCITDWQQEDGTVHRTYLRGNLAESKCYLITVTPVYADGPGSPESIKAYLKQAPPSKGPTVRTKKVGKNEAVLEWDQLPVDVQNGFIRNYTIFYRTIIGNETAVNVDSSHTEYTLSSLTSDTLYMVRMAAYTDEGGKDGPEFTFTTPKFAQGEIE
Description: SPR, ratio of KD values. As for the experimental part: A concentration series of soluble LIFR (# 249-LR-050/CF, R&D Systems, Minneapolis, Minn.), soluble OSMR (# 4389-OR-50, R&D Systems, Minneapolis, Minn.) or soluble gp130 (# 228-GP-050/CF, R&D Systems, Minneapolis, Minn.) in running buffer (10 mM HEPES pH 7.4, 150 mM NaCl, 3.4 mM EDTA, 0.005% Tween-20) were injected over both channels at a flow rate of 25 μl/min. Following a dissociation period of 3 minutes, the surfaces were regenerated by injecting 10 mM NaOH for 30 seconds. Rate constants for association (kₐ) and dissociation (kd) rates were derived by global analysis of the response curves fit to a 1:1 kinetic model (Equations 1 and 2) using QDat software (BioLogic Software, Ltd. Knoxville Tenn. and Nomadics, Inc. Stillwater, Okla.) using 1:1 stoichiometry.
Reducing the size of the BC loop improves OSM's affinity towards LIFR and OSMR. […] To directly measure the binding kinetics of these ligand-receptor interactions, surface plasmon resonance (SPR) was used. The cytokines (LIF, OSM-WT, OSM-M1 and OSM-M2) were immobilized on the sensor chip surface, while recombinant soluble receptors were used as the analytes (FIG. 11).
In general terms: In SPR one partner is held on a chip, and binding of the other changes the refractive index at the surface.

B1: OSM-M2 (OSM with BC loop truncated from 12 to 4 amino acids) (ligand)
chain: AAIGSCSKEYRVLLGQLQKQTDLMQDTSRLLDPYIRIQGLDVPKLREHCRERPGAFPSEETLRGLGRRGFLQTLNATLGCVLHRLADLEQRLGGGNIEDLEKLQMARPNILGLRNNIYCMAQLLDNSDTAEPTKAGAGASQPPTPTPASDAFQRKLEGCRFLHGYHRFMHSVGRVFSKWGESPN
notes: Made from the 'AGA' modified OSM template; lacks the thrombin site; not shown: N-terminal FLAG tag left after thrombin removal of GST
Take B1: in assay [1], the binding result was “no binding (tested: 150 nM)”.

B2: OSM-WT ('AGA' modified human Oncostatin M, referred to as wild-type OSM) (ligand)
chain: AAIGSCSKEYRVLLGQLQKQTDLMQDTSRLLDPYIRIQGLDVPKLREHCRERPGAFPSEETLRGLGRRGFLQTLNATLGCVLHRLADLEQRLPKAQDLERSGLNIEDLEKLQMARPNILGLRNNIYCMAQLLDNSDTAEPTKAGAGASQPPTPTPASDAFQRKLEGCRFLHGYHRFMHSVGRVFSKWGESPN
notes: also called hOSM with AGA modification; not shown: N-terminal FLAG tag left after thrombin removal of GST
B2: the “fold higher affinity than towards LIFR” value in assay [2] worked out at 2 fold.
